This note sets out measurements from the RNAGym collection of RNA variant scans (doi:10.1093/nar/gkz1192).

The chains are these.
B1: CPEB3 Ribozyme (parent)
chain: UAACAGGGGGCCACAGCAGAAGCGUUCACGUCGCAGCCCCUGUCAGAUUCUGGUGAAUCUGCGAAUUCUGCUGUAUAUCUC

Variants of B1 are the subject of the data set. In words: self-cleavage, relative activity (ratio to wild type); higher = more cleavage; in vitro, sequencing. Summed up:
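Libraries of CPEB3 self-cleaving ribozyme mutants came from rounds of error-prone PCR and carried barcodes, which DNA sequencing matched to variants. In vitro transcription used T7 RNA polymerase at 37°C for 5 hours, with a further 15 min in DNase I before EDTA stopped the reaction; the ribozymes cleaved during both steps. The RNA was reverse transcribed with template switching and sequenced on Illumina. Relative activity is the cleaved/total read fraction of a variant divided by that of the unmutated ribozyme, averaged over three batches with at least 5 reads.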
In the case of UAACAGGGGGCCACAGCAGCAGCGUACACGUCGCAGCCCCUGUCAGAUUCUGGUGAAUCUGCGAAUUCUGCUGUAUAUCUC [A20C U26A], the self-cleavage amounted to 0.21. On to UAACGGUGGGCCACAGCAGAAGCGUUCACGUCGCAGCCCCUGUCAGAUUCUGGUGAAUCUGCGAAUUCUGCUGUAUAUCUC [A5G G7U], for which the self-cleavage turned out to be 0.39.

On to UAACAGGGGGCCACAGCAGAAGCGUUCACGUCGCAGCCCCUGUCAGAUUCUGGUGAUGCUGCGAAUUCUGCUGUAUAUCUC [A57U U58G], for which the self-cleavage came out at 0.1. Take UAACAGGCGGCCACAGCAGAAGCGUUAACGUCGCAGCCCCUGUCAGAUUCUGGUGAAUCUGCGAAUUCUGCUGUAUAUCUC [G8C C27A]: the self-cleavage was found to be 0.19. As to UAACAGGGGGCCACAGUAGAAGCGUUCACGUCGCAGCCCCUGUCAGAUUCUGGUAAAUCUGCGAAUUCUGCUGUAUAUCUC [C17U G55A], the self-cleavage was determined as 0.38. Turning to UAACAGGGGGCCACAGCAGAAGUGUUCACGUCGCAGCCCCUGUCAGAUUCUGGUGAAACUGCGAAUUCUGCUGUAUAUCUC [C23U U58A], the self-cleavage was 0.34.

As for UAACAAGGGGCCUCAGCAGAAGCGUUCACGUCGCAGCCCCUGUCAGAUUCUGGUGAAUCUGCGAAUUCUGCUGUAUAUCUC [G6A A13U], the self-cleavage turned out to be 0.28. Consider UAACAGGGGGCCACAGCAGAAGCGAUCACGUCGCAGCCCCUGUCAGAUUCUGGUGAAUCUGCGAAUUCUGCUGUACAUCUC [U25A U76C], for which the self-cleavage came out at 0.32. On to UAACAGGGGGCCACAGCAGAAGCGUUCACGUCGCAGCCCCUGUCAUAUUCUGGUGAAUCAGCGAAUUCUGCUGUAUAUCUC [G46U U60A], for which the self-cleavage worked out at 0.38. Take UAACAGGGGGCCACAGCAGAAGCGUUCACGUCGCAGCCCCCGUCAGAUUCUGAUGAAUCUGCGAAUUCUGCUGUAUAUCUC [U41C G53A]: the self-cleavage turned out to be 1.13. As for UAACAGGGGGCCACAGCAGAAGCGUUCACGUCGCAGCCCCUGUCAGAUACUGGUGAAUCUGCGAAUUCUGCUGUAUAUCAC [U49A U80A], the figure is 0.88; as for UAACAGGGGGCCACAGCAGAAGCGUUCACGUCGCAGCCCCUGUCAGAUUCUGGUGAAUCGGAGAAUUCUGCUGUAUAUCUC [U60G C62A], 0.34; as for UAACAGGGGGCCACAGCAGAAGCGAUCACGUCGCAGCCCCUGUCAGAUUCUGGUGAAUCUGCGAAUUCUGCUGUAUACCUC [U25A U78C], 0.13. For UAACAGGAGGCCACAGCAGAAGCGUUCACGUCGCAGCCCCUGUCAGAUUCUGGUAAAUCUGCGAAUUCUGCUGUAUAUCUC [G8A G55A], the self-cleavage turned out to be 0.06.

For UGACAGGGGGCCACAGCAUAAGCGUUCACGUCGCAGCCCCUGUCAGAUUCUGGUGAAUCUGCGAAUUCUGCUGUAUAUCUC [A2G G19U], the self-cleavage stood at 0.89. UAACAGGGGGCCACAGCAGAAGCGUUCACGUCGCACCCCCUGUCAGAUUCUGGUGAAUCCGCGAAUUCUGCUGUAUAUCUC [G36C U60C]: the self-cleavage was found to be 0.13. As to UAACAGAGGGCCACAGCAGGAGCGUUCACGUCGCAGCCCCUGUCAGAUUCUGGUGAAUCUGCGAAUUCUGCUGUAUAUCUC [G7A A20G], the self-cleavage was 0.26. For the variant UAACAGGGGGCCACAGCAGAAGCGUUCACGUCGCAGCCCCUGUCGGAUUCUGGUGAAUCUGCGAAUUCUGCUGUAUAUAUC [A45G C79A], the self-cleavage came to 1.13. Take UAACAGGGGGCCACAGCAGAAGCGUUCACGUCGCAGCCCCUGUCAGAUUCUGGUGAAACUGCGAAUACUGCUGUAUAUCUC [U58A U67A]: the self-cleavage was determined as 0.32. Under UAACAGGGGGCCACAGCAGAAGCGUUCACGUCGCAACCCCUGUCAGAUUCUGGUGAAUCUGCGAAUUCUGCUGUAUAUCAC [G36A U80A] stands 0.13. Regarding UAACAGGGGGCCACAGCAGAAGCGUUCACGUCGCAGCCCCUGUCAGAUUCUGGUGAAUCUACGAAUCCUGCUGUAUAUCUC [G61A U67C], the self-cleavage was 0.36. As for UAACAGGGGGCCACAGCAGAAGCGUUCACGUCGCAGCCCCUGUCAGAUUCUGGUGAAUCUGCGAAUUCUGCUGUAAAGCUC [U76A U78G], the self-cleavage turned out to be 1.37. Consider UAACAGGGGGCCACAGCUGAAGCGUUCACGUCGCAGCCCCUCUCAGAUUCUGGUGAAUCUGCGAAUUCUGCUGUAUAUCUC [A18U G42C], for which the self-cleavage came to 0.18. In the case of UAACAGGGGGCCACAGCAGAAGCGUUCACGUCGCAGCCCCUGUCCGAUUCUGGUGAACCUGCGAAUUCUGCUGUAUAUCUC [A45C U58C], the self-cleavage stood at 0.33. Take UAACAGGGGGCCACAGCAGAAGCGUUCACGUCGCAGACCCUGUCAGAUUCUGGGGAAUCUGCGAAUUCUGCUGUAUAUCUC [C37A U54G]: the self-cleavage was 0.2.

On to UAACAGGGGGCCACAGCAGAAGCGUUCAUGUCGCAGUCCCUGUCAGAUUCUGGUGAAUCUGCGAAUUCUGCUGUAUAUCUC [C29U C37U], for which the self-cleavage is 0.34. For UAACACGGGGCCACAGCAGAAGCGUUCACGACGCAGCCCCUGUCAGAUUCUGGUGAAUCUGCGAAUUCUGCUGUAUAUCUC [G6C U31A], the self-cleavage is 0.16.

On to UAACAGGGGCCCACAGCAGAAGCGUGCACGUCGCAGCCCCUGUCAGAUUCUGGUGAAUCUGCGAAUUCUGCUGUAUAUCUC [G10C U26G], for which the self-cleavage stood at 0.39. As for UAACAGGGGGCCACAGCAGAAGCGUUCACGUCGCAGCCCCUGUCAGAUUCAGGUGUAUCUGCGAAUUCUGCUGUAUAUCUC [U51A A56U], the self-cleavage was determined as 0.68.

Consider UAACAGGGGGCCACAGCAGAAGCGUUCACGUCGCAGCCCCUGUCAGAUUCUGGUGAAUCCGCGAAUUCUGCUGCAUAUCUC [U60C U74C], for which the self-cleavage came out at 0.79. For the variant UAACAGGGGGCCACAGCAGAAGAGAUCACGUCGCAGCCCCUGUCAGAUUCUGGUGAAUCUGCGAAUUCUGCUGUAUAUCUC [C23A U25A], the self-cleavage was 0.27. As for UAACAGGGAGCCACUGCAGAAGCGUUCACGUCGCAGCCCCUGUCAGAUUCUGGUGAAUCUGCGAAUUCUGCUGUAUAUCUC [G9A A15U], the self-cleavage was found to be 0.15.

Turning to UAACAGGGGGCCACAGCAGAAGCGUUCACGUCGCAGCCCCUGUCAGUUUCUGGUGAAUCUGCGAAUUCUGCUGUUUAUCUC [A47U A75U], the self-cleavage is 1. Under UAACAGGGGGCCAUAGCAGAAGCGUUCACGUCGCCGCCCCUGUCAGAUUCUGGUGAAUCUGCGAAUUCUGCUGUAUAUCUC [C14U A35C] stands 1.11.
